The source of these data is the DeepSol protein solubility set.

A short description of the data set: soluble on expression in E. coli; label from the status in PepcDB or PDB records.
Consider “MGIRVKRRQHQHLLESLVHSTAKQQGDFTKTAELATELLCQNLAVSLVSIWIFSADQGTQSLVAQFGSMALQDTYRPSLLHTVPRYLNELKNYRHIDAGNTLIDPRLTELVDSYFIPRQILSSLDVGIRINGHLEGVLCIERAQVTHHWHDSEIHLACQMADQLALTLATKHAYDKEERLSLFRCAIEQSRQMSMLEHHHHHH”, for which the “soluble on expression in E. coli” value is recorded as “soluble”. As for “MSLGDSETIRILVSTDNHVGYNERDPIRGDDSWKSFHEVMCLAKQHDVDMVLLAGDLFHENKPSRKSMYQVMRSIRMNCLGDKPCELQLLSDASENFQGAFNHVNYEDLDINVGIPIFSIHGNHDDPSGEGHLAALDILQVSGLLNYYGRTPESDNIQLKPVLLQKGRTKLALYGMSNVRDERLFRTFRDGKVKFFRPSVQKEDWYNLICVHQNHHAYTETGYLPENFLPEFLDLVIWGHEHECLINPREGHHHHHH”, the entry is “soluble”; as for “MYIVNSNKSRGSSVERYIVSRLRDKGFAVIRAPASGSKRKDHVPDIIALKSGVIILIEVKSRKNGQKIYIEKEQAEGIREFAKRSGGELFLGVKLPKMLRFIKFDMLRQTEGGNYAIDLETVEKGMELEDLVRYVESKISRTLDSFL”, “soluble”. As for “MSRAVRPYLVLATQRSGSTLLVESLRATGCAGEPQEFFQYLPSTGMAPQPREWFAGVDDDTILQLLDPLDPGTPDTATPVAWREHVRTSGRTPNGVWGGKLMWNQTALLQQRAAQLPDRSGDGLRAAIRDVIGNEPVFVHVHRPDVVSQAVSFWRAVQTQVWRGHPDPKRDSQAVYHAGAIAHIIRNLRDQENGWRAWFAEEGIDPIDIAYPVLWRNLTAIVASVLDAIGQDPKLAPAPMLERQANQRSDEWVDRYRAEAPRLGLPT”, the “soluble on expression in E. coli” value is “soluble”. In the case of “SKDVLADYKELFRQFSISDIAVWVSTPSFAGVCITEKEFNSKMLPNLESMIFIGEALSKNLTKELMSRFPNTRIINGYGPTEATVGVSVNDMTQKAIDDEK” it was “not soluble”; in that of “MASQLLINDSKYGFLKELGLTENNAGVFHGKWAASGQVVQSFAPANNSPIANVQNGNVQDYEIAISEAKKAYNDWCEVPAPRRGEIVRQIGDKLRTQLQNLGKLVSLEMGKISAEGVGEVQEYVDICDYATGLSRSLEGKIFPSERPGHALLEQWNPLGVVGVISAFNFPCAVYGWNNALALVTGNSVVWKPAPSTPLTAIAVTKLVEEVLVANNVNPALCSLVCGEGDVGQALVKDKRVNLVSFTGSSEIGKIVGQQVQARFGKLLLELGGNNAIIVNEDADLNMVVPATVFAAVGTAGQRCTTTRRLIVHDKVYDQVLERLKKAYAQFESRIGCPLDSNTIIGPLHNQQAVGKYKASVAEAVASGGKIEYGGKVLERDGNFVLPTIVTGLKHDSPVVLRETFAPILYVLKFSTLEEAIAINNEVDQGLSSSLFTTNIQNVFKWMGPKGSDCGIVNVNIPTSGAEIGGAFGGEKETGGGRESGSDSWRQYMRRSTCTINYSKELPLAQGIKFE”, “not soluble”; in that of “MTDDVDTHIHEKFDLQKRLGKGAYGIVWKAYDKRSRETVALKKIFDAFRNPTDSQRTFREVMFLQEFGKHPNVIKLYNIFRADNDRDIYLAFEFMEADLHNVIKKGSILKDVHKQYIMCQLFRAIRFLHSGNVLHRDLKPSNVLLDADCRVKLADFGLARSLSSLEDYPEGQKMPDLTEYVATRWYRSPEILLAAKRYTKGVDMWSLGCILAEMLIGRALFPGSSTINQIERIMNTIAKPSRADIASIGSHYAASVLEKMPQRPRKPLDLIITQSQTAAIDMVQRLLIFAPQKRLTVEQCLVHPYVVQFHNPSEEPVLNYEVYPPLPDHIQLSIDDYRDRLYEMIDEKKASFKRIQHEKIRPYGEDKSRAPIAQAECSDTDYDTARSLQRTTSMDKNNSSSHDSSSGTLRERAASAESRTSKDSNGEMRNGNGNTPSSIKQRRRSVERARLFANIKPSKILHPHKLISNY”, “not soluble”. As for “MQDNSTKYLLYIQTATSNHLETNCVFLHCDYILKVPINKLVSYYAKLHLSSQSVLIETAKNILNINKLVPIYINPKTILFPLKHKRAPIQIYINAHYIVGMTAIENSTLIHFQEGIQLEVDEPFSLVSKKCHESLALKHFIENTISNLEHHHHHH”, the entry is “not soluble”. On to “MGSDKIHHHHHHMLSHETIWNAIDRLAEQYHLTPSGLARKAGLDPTSFNKSKRVGPDGRMRWPSTESIAKVLEATGARIDQFVTLISNDNHQVNAVHETLPDGNFPPQIGTIPLLGLAQAGSGGFFDDGGFPAGQGWDLVDLPTSAKPGVYALEIQGDSMKPLYRDGDILIVEPGAPVRRGDRVVVKTCDGEVMAKVLGRQTARTVDLISINPDHPNRVLDMQDVEWIARIIWVSQ”, for which the “soluble on expression in E. coli” value is “not soluble”.

In the case of “MGSDKIHHHHHHMGELTIAKSAGFCFGVTRAVNMVYEAIEKENVPIYTYGPIIHNDEVVKDMEKNGVTVINDLDELSSHEKGVMIIRSHGISKAEYDRIKNCGFEVLNATCPFVSKIHRYVEDYSSKGYDIIIVGSPKHPEVCGIKGWADEKCHVTIINSPEDAENYMKNSTKKLCIVSQTTFNYNKFQDIVEIIAKKGYDITVLNTICNATEVRQTEARKVAQCSDVMIVIGDRHSSNTQKLFEICKNECKNTYYIQTSDEMDYTQIRSNNNVGITAGASTPNNIIEEVSKNVRNEL”, the “soluble on expression in E. coli” value is “not soluble”. For “MEIVCEDFQKALTKIKLLRENANIIEETVQRSVREIVQNVRESRDEALSFYTKKFDGVEIKDVRVSEEEIKQASMFVESSFLEALQEAKKNIISYHEKQKRQSMFDCTSKGIIRGQIIRPLENIGVYVPGGTASYPSSVLMNVLPAKLAGVKKIVMVTPPRAGGIDPHILVAASLAGVDEIYMIGGAQAIAALAYGTESIPKVDKIVGPGNLYVALAKREVYGIVNIDMIAGPSEIVVIADETGNAKYIAADLLSQAEHDERATAICITTNIELAKEVEKEIERQLETLPRSEIARESINRNGAIFIVPSIDEALQLSNEIAPEHLELHIKEPMNALAYVKHAGSIFLGPYAPEPLGDYLAGPNHVLPTSGTARFFSPLSVDDFVKKSSFLSYTEGALRDVKHHIVELANKEGLHAHARAIQIRFGEEE”, the “soluble on expression in E. coli” value is on record as “not soluble”. As to “IPNDILIVNPEAQGLVDGHKVIVKITKYPEGRMSAEGEVISILGHKNDPGMDILSIIYKYGIPQAFPEEVLQQAQNIPDEIDAGEIKNRRDLRDEPLVTIDGADAKDLDDAVHVSRLPNGNFKLGVHIADVSYYVKEKSPIDLEAAERGTSVYLVDRVIPMIPHRLSNGICSLNPQVDRLTLSCEMEITRDGQVVNHEIFQSVIRTNERMTYHDVNKILVEKEEELRNRYELLVPMFEDMEELAAILRKKRFGRGAIDFDFKEAKVLVDEEGKPSDVVIRERGVAEKLIEEFMLAANETVAEHFHWLKLPFMYRIHEDPDSEKLGRFLEFITNFGYVVRGTANTVHPRALQKLLEEVRGEPEEQVISTVMLRSMQQAK”, the “soluble on expression in E. coli” value is reported as “not soluble”.

Regarding “MDPEALNLEFYDKNGLDNPIHFRCDPKRIGMTLPSPDFSVDDVLELVGGNRMIEVVQVQNQGSVKMSLQEFINFYKTPQEKREVLYNVLSLEFSQTPLEDLVKSPELVRQIDWVGNQWPDALRQRWISFNGRDKKFYNPHHTFPKVQNYCLMSVANCYTDFHIDFSGTSVWYHVLKGRKVFWLIPPTETNFFIYQEFIKTVNDNAFFGKSVEKCHVAILEPGDTMLIPSGWIHAVYTPDDSLVFGGNFLHSQSCKTQLRVYQVENKLNITRKFRLPYNEELIFYVIADYVKQWTGREYVRPLRIEDAKYDYVGDKWKTAGGHHKKIEYSDYETGVELTNDMIKGDEESTKDEVKVIAMHAENSLFGYPMVSKATFSADTGLEEEADEDEVKYQETKEEMDARRDAEIDELANSNSLIFYKNRTHDFVRNKCVPDHKLPIGHEPPIYFNDDEISRISPRLLDELETLGTYIRRKARVEVAEGICQPASLINTFQTVLKKRRSELTGKKFEFNQIMPRRYTRSTMETGEYDFQPTQEVPQESARRSTRFKVDNFPDELLESEVTDKPIILPQQPSSGPLEYLPAPKDEIKEDINGFEEEFEEEYEGIGQRDDQEEEEYDAEEPEDQEEEEEDEYQAEEYTPTPVTRRSSSRRSGAKNDESEEVSVKKDKKEKMEKVEKDEKRRNSKSKKDKISKEKKKKERERIELESQLDAELRAAHGGGSSKSKKKKPEKPAFVGGLPTSSIQIDPVVSNPYNYDPRMEMMKLGTGQLKSAYRKTKNNVELHIEKNLYKIEPKRGSEEGSQSREQSMEPEHSTPVFTTFDDINEANNDHYDGQKPPTKRAKYEAISVDTYETPSSSRNKEHKEYRPSPNAAPTPSPSHHQKPKLSSPAMVSSTNEYQLRKHMSSERRSSDAGSAMKKGVYMPAMSRQDKMIAEGASAPSSRHSSISSERRPSFIPDFNSSRNSSIDTPYTPTTVTPSRSSWLPNTSSINRHSIEDDSPIDVVNDSLSPINIASSPTYPTAITPPPVTLSDLKKDMSNGRKSHSQHHDDGHKHKIPSKEAIAELKLLVGKLKAINDS”, the “soluble on expression in E. coli” value was “not soluble”.

For the sequence “MGSDKIHHHHHHVPRVARIKSKSGIYHIIMRGINRQIVFEENEDCVKFIQTLQKIQAICKYRLYAYCLMGNHLHLLLMEGTEPLGNVMRRICSSYVLWYNKKYDRVGYLFQDRFKSEPVEDDGYFLTVLRYIFQNPVKAGIVTKIKDYKWTNYTDYIEGSNKTDTDFVLDFFNTNRERAIRSFIEYINKTNDDKCLDIPGKRQLTDEDAKKIIKDHCHIYNALDLYKFDVNKRNQYLKELKEGYGLSIRQIERLTGIGRGIIQRA”, the “soluble on expression in E. coli” value was “not soluble”. As to “MSLVTIKDIARNLGISYSTVSRCLNNNPNVSEKTKKKVVEEANRLGFHFNVNARNLAKKETNRIGVIFSNNFNHQDTRKFFSDIMDSSINSIETNKYDFIIQPNNNISGDSNVYKMVNGQMVDGLVIVSQSIKKEEYDFLKDNNFPHVFIYFKPSFIGEVDNFFWDDNVYGGYIATKHLIDHGHKDIITVTSDDKSSKMHEDRTKGYLNAMEEANLKTEVIKSKMDFESQVEFLEKYIDKIKKASAIFVQQDVPAISIIQELKTTYGINVPEDISIIGYNNIELISYFRSHLSTIDDPREQVIKNGVDSLVNIINKKSTEHIPRKLYPRLIIRNSVKRIKEGHHHHHH”, the “soluble on expression in E. coli” value was “soluble”. In the case of “MGSDKIHHHHHHMKILWITSVYPSSMKPGEGVFHETQVQELQKLGLDITVICPRPFHSAPVRMLKKTYRKKDVRPEYEIRKGIPVYRPFYRAVPGQLKWAQPHRRIASAVLKTMKQRDLYPDLIHAHFAMPSGGAAAVVSESAQIPYVLTLHGSDVNVYPHYSKGAFKAFKRAVGSASVVLAVSHKLQEEAKKLSGFDSSVLPIGIQLSRFQGNEETKEEIRKRLGLPLDQRLAVYVGRLVREKGIFELSEAIESLQDSPKAVFVGDGPAKSTLTQKGHIVTGQVPNHQVRDYLLAADLFVLPSYSEGMPTVVIEALALRVPVICTDVGGVSSLFGKHQHLLIKPKSAQALAEAITRYEHEQIWKPEVADDLYETVQAQFDAGKNAKALHHQYQTVTKTSV” it was “not soluble”. For “MVLEVNQAIVNESLQTEQVMEQLSSTVDVIVDNIEKYTNAARYGKGNNYALNNLRTAVQNQFPLVDWLLSTSLSQMIENAWQNGSLPTVTDEDGNVYLKAPLNVFTTPPKDTKGECCWLPFDIAACGGKAPINILCLKDCVDMLNHLLDRKLKVQSNDLIGFFKQAGQTYEEVRDFMNRESMAFYTANTIVNGQLDVTTPILKKFHGLMEILKRPEVFKMQGTNILAAFDSIGYRMDVLGGSFIFAAHPLTVASIKNAIRPNRYGILPDGWTINGESIFYKGAQVLPDKTVPVDVENGTGVIWQLSGESVGVFLGTTLRPAEDYIIRNQFTTTNDVNKGCATECDIYYNLGSVVTNNVARLAVITDVPLAAGINAYSLANLLDRVYVETLAP”, the “soluble on expression in E. coli” value is given as “not soluble”.
